# Laboratory results as given in patent publication US11549123B2, “Plant EPSP synthases and methods of use” (PIONEER HI-BRED INTERNATIONAL, INC., priority 2015, dated 2023).
# Positions count from the first letter of the chain named. Numbers in names are those of the source.
# B1: Zea mays EPSPS variant 771-C2 (A4W, H54M, L98C, G102A, K173R, I208L, K243E, E302S, T361S, E391P, D402G, A416G, V438R, S440R, T441Q, F442V), SEQ ID NO:4 (Zea … (protein)
# chain: MAGWEEIVLQPIKEISGTVKLPGSKSLSNRILLLAALSEGTTVVDNLLNSEDVMYMLGALRTLGLSVEADKAAKRAVVVGCGGKFPVEDAKEEVQLFCGNAATAMRPLTAAVTAAGGNATYVLDGVPRMRERPIGDLVVGLKQLGADVDCFLGTDCPPVRVNGIGGLPGGKVRLSGSISSQYLSALLMAAPLALGDVEIEIIDKLISLPYVEMTLRLMERFGVKAEHSDSWDRFYIKGGQKYESPKNAYVEGDASSASYFLAGAAITGGTVTVEGCGTTSLQGDVKFAEVLEMMGAKVTWTSTSVTVTGPPREPFGRKHLKAIDVNMNKMPDVAMTLAVVALFADGPTAIRDVASWRVKESERMVAIRTELTKLGASVEEGPDYCIITPPPKLNVTAIDTYGDHRMAMAFSLAACGEVPVTIRDPGCTRKTFPDYFDRLRQVVKN
# B2: Sorghum halepense EPSPS with 868-H6 mutations, SEQ ID NO:12 (Sorghum halepense; … (protein)
# chain: ARGWEEIVLQPIKEISGTVKLPGSKSLSNRILLLAALSEGTTVVDNLLNSEDVHYMLGALNTLGLSVEADKQAKRAVVVGCGGRFPVEDAKEEVQLFCGNAATAMRPLTAAVTAAGGNATYVLDGVPRMRERPIGDLVVGLKQLGADVDCFLGTDCPPVRINGIGGLPGGKVKLSGSISSQYLSALLMAAPLALGDVEIEIIDKLISLPYVEMTLRLMERFGVKAEHSDSWDRFYIKGGQKYKSPKNAYVEGDASSASYFLAGAAITGGTVTVEGCGTASLQGDVKFAEVLEMMGAKVTWTSTSVTVTGPPRQPFGRKHLKAIDVNMNKMPDVAMTLAVVALFADGPTAIRDVASWRVKESERMVAIRTELTKLGASVEEGPDYCIITPPGKLNVTAIDTYGDHRMAMAFSLAACGEVPVTIRDPGCTRKTFPDYFDRLSQFVKN
# B3: Zea mays EPSPS variant WT-FS-E2 (102A 302S 391G 438R I208L) (Zea mays; E301S/E390G/G101A/I207L/V437R) (protein)
# chain: MAGAEEIVLQPIKEISGTVKLPGSKSLSNRILLLAALSEGTTVVDNLLNSEDVHYMLGALRTLGLSVEADKAAKRAVVVGCGGKFPVEDAKEEVQLFLGNAATAMRPLTAAVTAAGGNATYVLDGVPRMRERPIGDLVVGLKQLGADVDCFLGTDCPPVRVNGIGGLPGGKVKLSGSISSQYLSALLMAAPLALGDVEIEIIDKLISLPYVEMTLRLMERFGVKAEHSDSWDRFYIKGGQKYKSPKNAYVEGDASSASYFLAGAAITGGTVTVEGCGTTSLQGDVKFAEVLEMMGAKVTWTSTSVTVTGPPREPFGRKHLKAIDVNMNKMPDVAMTLAVVALFADGPTAIRDVASWRVKETERMVAIRTELTKLGASVEEGPDYCIITPPGKLNVTAIDTYDDHRMAMAFSLAACAEVPVTIRDPGCTRKTFPDYFDRLSTFVKN
# B4: Zea mays EPSPS variant WT-FS-B (103I 107S 278G 338S) (Zea mays; A337S/P106S/T102I/T277G) (protein)
# chain: B3 chain with A102G, T103I, P107S, L208I, T278G, S302E, A338S, G391E, R438V
# B5: Zea mays EPSPS variant WT-FS-D (101S 107L 302S 338S) (Zea mays; A100S/A337S/E301S/P106L) (protein)
# chain: B3 chain with A101S, A102G, P107L, L208I, A338S, G391E, R438V
# B6: Sorghum halepense EPSPS, native, SEQ ID NO:8 (Sorghum halepense) (protein)
# chain: B3 chain with M1A, R61N, A72V, A102G, V161I, L208I, S302E, E313Q, G391E, R438V
# B7: Zea mays EPSPS variant 123-C1 (A2R, A4W, K84R, L98C, G102A, I208L, K243E, E391P, D402G), SEQ ID NO:6 (Zea mays; A1R/A3W/D401G/E390P/G101A/I207L/K242E/K83R/L97C) (protein)
# chain: B3 chain with A2R, A4W, K84R, L98C, K243E, S302E, G391P, D402G, R438V
# B8: Zea mays EPSPS variant 868-H6 (A2R, A4W, A72Q, K84R, L98C, G102A, I208L, T279A, E302S, T361S, E391G, D402G, A416G, V438R, T441Q), SEQ ID NO:5 (Zea mays; … (protein)
# chain: B2 chain with A1M, N61R, I161V, Q313E
# B9: Oryza sativa EPSPS with 868-H6 mutations, SEQ ID NO:11 (Oryza sativa; A482G/A67R/A69W/D368S/D468G/E457G/G168A/I274L/K149R/L164C/T345A/T427S/T507Q/V137Q/V504R) (protein)
# chain: APARKWEEIVLQPIREISGAVQLPGSKSLSNRILLLSALSEGTTVVDNLLNSEDVHYMLEALKALGLSVEADKQAKRAVVVGCGGRFPVEKDAKEEVQLFCGNAATAMRPLTAAVTAAGGNATYVLDGVPRMRERPIGDLVVGLKQLGADVDCFLGTECPPVRVKGIGGLPGGKVKLSGSISSQYLSALLMAAPLALGDVEIEIIDKLISLPYVEMTLRLMERFGVKAEHSDSWDRFYIKGGQKYKSPGNAYVEGDASSASYFLAGAAITGGTVTVQGCGTASLQGDVKFAEVLEMMGAKVTWTSTSVTVTGPPREPYGKKHLKAVDVNMNKMPDVAMTLAVVALFADGPTAIRDVASWRVKESERMVAIRTELTKLGASVEEGPDYCIITPPGKLNITAIDTYGDHRMAMAFSLAACGDVPVTIRDPGCTRKTFPNYFDRLSQFVRN
# Columns and labels:
# Conditions in all cases: other: PEP varied; pH 7.0
# [1] = substrate: C=C(OP(=O)(O)O)C(=O)O; experiment: EPSPS substrate saturation kinetics, 771-C2; assay type: biochemical, Zea mays
# Description: (§1) EPSPS activity was determined by quantifying the phosphate generated from the EPSPS reaction. Release of inorganic phosphate was coupled to reaction with 2-amino-6-mercapto-7-methylpurine ribonucleoside, catalyzed by purine-nucleoside phosphorylase (M R Webb, Proc. Natl. Acad. Sci. 89:4884-4887, 1992). The absorbance change that occurs was monitored at 360 nm, where the extinction is 11,200 M^−1 cm^−1, with a Spectramax plate reader (Molecular Devices). To determine kinetic parameters, the varied substrate was present at seven concentrations (the eighth being the blank, containing no substrate) ranging from 4 to 400 uM and the unvaried substrate present at saturation. Six microliters of 50-fold concentrated stock solutions of the varied substrate were placed in the wells of the 96-well assay plate and reactions were started with the addition of a mixture containing 25 mM Hepes, pH 7, 100 mM KCl, 0.3 mM 2-amino-6-mercapto-7-methylpurine ribonucleosde, 1 uM (1 unit/ml) purine-nucleoside phosphorylase (Sigma N8264) and 200 uM of the non-varied substrate. Reactions were monitored with a Spectramax plate reader. The Michaelis-Menten kinetics protocol of the Spectramax software was customized for the substrate concentrations used. The software returns values of KM and Vmax using the Lineweaver-Burke transformation of the Michaelis-Menten equation. To determine kcat, Vmax (uM/min) was divided by the enzyme concentration (uM). […] KI was then calculated from the following form of the Michaelis-Menten equation for competitive inhibition: KI=KM[I]/(KM app−KM) KM approximates the dissociation constant of the enzyme-substrate complex while kcat is the rate of conversion of substrate to product when the substrate concentration is saturating. kcat/KM is a widely accepted parameter for catalytic efficiency when substrate concentration is low (˜KM). […] The parameter kcat/KM×KI is used to quantify both catalytic efficiency and insensitivity and thus the overall fitness of the enzyme.
# (§2) From the functional diversity identified for each, combinatorial libraries were constructed and screened. […]
# [2] = substrate: C=C(OP(=O)(O)O)C(=O)O; experiment: EPSPS substrate saturation kinetics, sorghum H6; assay type: biochemical, Sorghum halepense
# Description: as §1, with “Six microliters of 50-fold concentrated stock solutions of the varied substrate were placed in the wells of the 96-well assay plate and reactions were started with the addition of a mixture containing 25 mM Hepes, pH 7, 100 mM KCl, 0.3 mM 2-amino-6-mercapto-7-methylpurine ribonucleosde, 1 uM (1 unit/ml) purine-nucleoside phosphorylase (Sigma N8264) and 200 uM of the non-varied substrate.” left out, “reader.” for “reader. The Michaelis-Menten kinetics protocol of the Spectramax software was customized for the substrate concentrations used. The software returns values of KM and Vmax using the Lineweaver-Burke transformation of the Michaelis-Menten equation. To determine kcat, Vmax (uM/min) was divided by the enzyme concentration (uM).”
# (§3) Native EPSPS amino acid sequences of rice (Oryza sativa) (SEQ ID NO:7), sorghum (Sorghum halepense) (SEQ ID NO:8), and sunflower (Helianthus annus) (SEQ ID NO:9) including the chloroplast transit peptide sequences were assembled and analyzed for mapping the corresponding amino acid mutations from the maize 868-H6. […]
# (§4) ChloroP Prediction Server (Emanuelsson, O. et al. 1999. Protein Sci. 8(5):978-84) was used to approximate the amino terminus of the mature EPSPS proteins. […] The synthetic genes were cloned into a plasmid vector and expressed, purified and analyzed as described in Example 1.
# [3] = substrate: C=C(OP(=O)(O)O)C(=O)O; experiment: EPSPS substrate saturation kinetics, WT-FS-E2; assay type: biochemical, Zea mays
# Description: as §1, with “reader.” for “reader. The Michaelis-Menten kinetics protocol of the Spectramax software was customized for the substrate concentrations used. The software returns values of KM and Vmax using the Lineweaver-Burke transformation of the Michaelis-Menten equation. To determine kcat, Vmax (uM/min) was divided by the enzyme concentration (uM).”
# (§5) The vector DNA of the library was transformed into the BL21(DE3) Tuner AroA knockout strain and the cells were plated onto M9 medium containing 50 mM glyphosate. A small aliquot of the transformed cells was plated on LB, by which it was determined that 1.1×10^8 colony forming units, or 20% of the theoretical library size, were plated and screened. […]
# [4] = substrate: C=C(OP(=O)(O)O)C(=O)O; experiment: EPSPS substrate saturation kinetics, WT-FS-B; assay type: biochemical, Zea mays
# Description: as §1, with “reader.” for “reader. The Michaelis-Menten kinetics protocol of the Spectramax software was customized for the substrate concentrations used. The software returns values of KM and Vmax using the Lineweaver-Burke transformation of the Michaelis-Menten equation. To determine kcat, Vmax (uM/min) was divided by the enzyme concentration (uM).”, “enzyme. […]” for “enzyme.”
# as §5
# [5] = substrate: C=C(OP(=O)(O)O)C(=O)O; experiment: EPSPS substrate saturation kinetics, WT-FS-D; assay type: biochemical, Zea mays
# Description: as §1, with “reader.” for “reader. The Michaelis-Menten kinetics protocol of the Spectramax software was customized for the substrate concentrations used. The software returns values of KM and Vmax using the Lineweaver-Burke transformation of the Michaelis-Menten equation. To determine kcat, Vmax (uM/min) was divided by the enzyme concentration (uM).”, “enzyme. […]” for “enzyme.”
# as §5
# [6] = substrate: C=C(OP(=O)(O)O)C(=O)O; experiment: EPSPS substrate saturation kinetics, native sorghum; assay type: biochemical, Sorghum halepense
# Description: as §1, with “Six microliters of 50-fold concentrated stock solutions of the varied substrate were placed in the wells of the 96-well assay plate and reactions were started with the addition of a mixture containing 25 mM Hepes, pH 7, 100 mM KCl, 0.3 mM 2-amino-6-mercapto-7-methylpurine ribonucleosde, 1 uM (1 unit/ml) purine-nucleoside phosphorylase (Sigma N8264) and 200 uM of the non-varied substrate.” left out, “reader.” for “reader. The Michaelis-Menten kinetics protocol of the Spectramax software was customized for the substrate concentrations used. The software returns values of KM and Vmax using the Lineweaver-Burke transformation of the Michaelis-Menten equation. To determine kcat, Vmax (uM/min) was divided by the enzyme concentration (uM).”
# as §3, §4
# [7] = substrate: C=C(OP(=O)(O)O)C(=O)O; experiment: EPSPS substrate saturation kinetics, 123-C1; assay type: biochemical, Zea mays
# Description: as §1, with “enzyme. […]” for “enzyme.”
# [8] = substrate: C=C(OP(=O)(O)O)C(=O)O; experiment: EPSPS substrate saturation kinetics, 868-H6; assay type: biochemical, Zea mays
# Description: as §1, §2
# [9] = substrate: C=C(OP(=O)(O)O)C(=O)O; experiment: EPSPS substrate saturation kinetics, rice H6; assay type: biochemical, Oryza sativa
# Description: as §1, with “Six microliters of 50-fold concentrated stock solutions of the varied substrate were placed in the wells of the 96-well assay plate and reactions were started with the addition of a mixture containing 25 mM Hepes, pH 7, 100 mM KCl, 0.3 mM 2-amino-6-mercapto-7-methylpurine ribonucleosde, 1 uM (1 unit/ml) purine-nucleoside phosphorylase (Sigma N8264) and 200 uM of the non-varied substrate.” left out, “reader.” for “reader. The Michaelis-Menten kinetics protocol of the Spectramax software was customized for the substrate concentrations used. The software returns values of KM and Vmax using the Lineweaver-Burke transformation of the Michaelis-Menten equation. To determine kcat, Vmax (uM/min) was divided by the enzyme concentration (uM).”
# as §3, §4
protein,measurement,setting,value
B1,Km,[1],21.0 µM
same,kcat,[1],5.8 s⁻¹
same,kcat/Km,[1],275000 M⁻¹ s⁻¹
B2,Km,[2],30.6 µM
same,kcat,[2],5.28 s⁻¹
same,kcat/Km,[2],167000 M⁻¹ s⁻¹
B3,Km,[3],87.7 µM
same,kcat,[3],9.93 s⁻¹
same,kcat/Km,[3],6.80 min^−1uM^−1
B4,Km,[4],27.7 µM
same,kcat,[4],1.62 s⁻¹
same,kcat/Km,[4],3.57 min^−1uM^−1
B5,Km,[5],20.5 µM
same,kcat,[5],30.9 s⁻¹
same,kcat/Km,[5],92.3 min^−1uM^−1
B6,Km,[6],17.4 µM
same,kcat,[6],50.9 s⁻¹
same,kcat/Km,[6],2.93e+06 M⁻¹ s⁻¹
B7,Km,[7],24.2 µM
same,kcat,[7],7.3 s⁻¹
same,kcat/Km,[7],302000 M⁻¹ s⁻¹
B8,Km,[8],24.0 µM
same,kcat,[8],6.43 s⁻¹
same,kcat/Km,[8],268000 M⁻¹ s⁻¹
B9,Km,[9],28.9 µM
same,kcat,[9],4.88 s⁻¹
same,kcat/Km,[9],167000 M⁻¹ s⁻¹
